According to PMC4469607:

How the values were obtained:
[1] = biological target: Hcp from Acinetobacter baumannii AB0057, tag-free (Acinetobacter baumannii strain AB0057); experiment: AUC; sedimentation equilibrium, 20°C, Hcp at 1.0 and 2.5 mg/ml, 20 mM Tris-HCl pH 7.5, 200 mM NaCl, 0.2 mM DTT, 2% glycerol
[2] = biological target: Hcp from Acinetobacter baumannii AB0057, tag-free (Acinetobacter baumannii strain AB0057); experiment: negative-staining electron microscopy; Hcp at 0.02 mg/ml in 20 mM Tris-HCl pH 7.5, 200 mM NaCl, 2 mM DTT, stained with 1% uranyl formate; reference-free 2D classification
[3] = biological target: Hcp from Acinetobacter baumannii AB0057, C-terminal His-tagged (Acinetobacter baumannii strain AB0057); experiment: crystal structure; X-ray, 1.55 Å, space group P6; crystals from 2.0 M ammonium sulfate, 0.1 M Hepes pH 7.5, 4°C; hexamer made by the 6-fold crystallographic symmetry; interfaces analysed with PISA

Substance | stoichiometry N [1] | stoichiometry N [2] | stoichiometry N [3]
Hcp from Acinetobacter baumannii AB0057, tag-free (natural protein) | 6 | 6 | –
Hcp from Acinetobacter baumannii AB0057, C-terminal His-tagged (natural protein) | – | – | 6
